This note sets out measurements from the supplement of paper PMC10567573.

± gives the standard deviation.

The nature of the data set: protein stability index of a GFP-peptide fusion (GPS, HEK-293T) (PSI 1-6); higher = more stable. To be noted: c terminus: a fixed tail appended.
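Further: 24-mer peptide tiles fused after GFP, lentivirally expressed, FACS-sorted into six equal bins by GFP/DsRed ratio, decoded by Illumina sequencing, PSI is the read-weighted mean bin number.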

For LRYQETPGPREALSQLRVLCCEWL [ZNF232], the protein stability index reads like this: (treatment: DMSO) 2.13 ± 0.23; (treatment: MLN4924 1 uM, 8 h) 2.29 ± 0.22.

LSEAYRVLSREQSRRSYDDQLRSG [DNAJC4]: the protein stability index runs as follows: (treatment: DMSO) 3.2 ± 0.3; (treatment: MLN4924 1 uM, 8 h) 3.03 ± 0.3.

As to LSEEEEDEEEEEEEEEEGRFYYSE [KCNA4], the protein stability index was 5.2 ± 0.16 (treatment: DMSO) and 5.19 ± 0.39 (treatment: MLN4924 1 uM, 8 h).

As for LSPLRAASDPLLSSVSPAVSKASS [TFE3], the protein stability index is, setting by setting: (treatment: DMSO) 4.47 ± 0.18; (treatment: MLN4924 1 uM, 8 h) 4.68 ± 0.067.

Take LSRVKAAALSERGQAEEELIKAKS [LRRC45]: the protein stability index by setting is: (treatment: DMSO) 5.01 ± 0.19; (treatment: MLN4924 1 uM, 8 h) 4.97 ± 0.061.

LSSLGENPQRQGLLKTPWRAASAM [GCH1]: the protein stability index reads like this: (treatment: DMSO) 2.8 ± 0.23; (treatment: MLN4924 1 uM, 8 h) 3.17 ± 0.13.

LTCEFNNNHESLDEELHLLIISCR [FBXO39] displayed a protein stability index (treatment: DMSO) of 2.27 ± 0.41 and a protein stability index (treatment: MLN4924 1 uM, 8 h) of 2.41 ± 0.39.

For the sequence LTILAKRKSLFDDKAVEIEELTYI [STX5], the protein stability index (treatment: DMSO) was 2.2 ± 0.35 and the protein stability index (treatment: MLN4924 1 uM, 8 h) stood at 2.22 ± 0.49.

Sequence LTKSQVQDKPYKCTDCGKSFNHNA [ZNF8] registered a protein stability index (treatment: DMSO) of 3.32 ± 0.21 and a protein stability index (treatment: MLN4924 1 uM, 8 h) of 3.54 ± 0.27.

For LTTSQERELGIRQRDEQLRALQER [FBF1], the protein stability index was 5.02 ± 0.38 (treatment: DMSO) and 5.24 ± 0.29 (treatment: MLN4924 1 uM, 8 h).

As for LVPILIEAARNGKMKFVIGNGKNL [NSDHL], the protein stability index was determined as 2.52 ± 0.3 (treatment: DMSO) and 2.36 ± 0.28 (treatment: MLN4924 1 uM, 8 h).

Consider LVQHGVKPQEIVQVEIFSTNPDLY [IQUB], for which the protein stability index came to 2.15 ± 0.21 (treatment: DMSO) and 2.32 ± 0.33 (treatment: MLN4924 1 uM, 8 h).

In turn, LWSQSYEDSSNQEEEGPSTFPDLE [MAGEA3] showed a protein stability index (treatment: DMSO) of 5.26 ± 0.21 and a protein stability index (treatment: MLN4924 1 uM, 8 h) of 5.06 ± 0.14.

Regarding LYHSVKQGPISTKELADFIRERAT [FCHO1], the protein stability index runs as follows: (treatment: DMSO) 2.35 ± 0.14; (treatment: MLN4924 1 uM, 8 h) 2.4 ± 0.29.

For the sequence MACAYAPSGCAIACGGLDNKCSVY [GNB5], the protein stability index by setting is: (treatment: DMSO) 2.44 ± 0.13; (treatment: MLN4924 1 uM, 8 h) 2.31 ± 0.25.

For MADSASESDTDGAGGNSSSSAAMQ [CCDC6], the protein stability index is 5.51 ± 0.08 (treatment: DMSO) and 5.38 ± 0.32 (treatment: MLN4924 1 uM, 8 h).

Turning to MAKSVKYTVNFLEAKEGDLHRIEI [CARM1], the protein stability index by setting is: (treatment: DMSO) 2.55 ± 0.61; (treatment: MLN4924 1 uM, 8 h) 2.46 ± 0.58.

As to MALRGPAGLGPGSRRPLDEAVAGA [DENND6A], the protein stability index (treatment: DMSO) amounted to 4.12 ± 0.42 and the protein stability index (treatment: MLN4924 1 uM, 8 h) is 4.53 ± 0.19.

MARGRKMSKPRAVEAAAAAAAVAA [KMT5A] showed a protein stability index (treatment: MLN4924 1 uM, 8 h) of 4.4 ± 0.55.

With MASLSRPSLPSCLCSFLLLLLLQV [MOG], the protein stability index came out at 2.5 ± 0.41 (treatment: DMSO) and 2.28 ± 0.19 (treatment: MLN4924 1 uM, 8 h).

With MAVLKLTDQPPLVQAIFSGDPEEI [ANKRD44], the protein stability index is 3.37 ± 0.28 (treatment: DMSO) and 3.43 ± 0.21 (treatment: MLN4924 1 uM, 8 h).

For MDDSTEREQSRLTSCLKKREEMKL [TNFSF13B], the protein stability index is, setting by setting: (treatment: DMSO) 5.04 ± 0.19; (treatment: MLN4924 1 uM, 8 h) 5.16 ± 0.11.

MEADSPAGPGAPEPLAEGAAAEFS [SLC35F2]: the protein stability index reads like this: (treatment: DMSO) 5.5 ± 0.27; (treatment: MLN4924 1 uM, 8 h) 5.48 ± 0.29.

In the case of MEEEDPMPRQISRQSSVTESTLYP [TPRG1], the protein stability index (treatment: DMSO) came to 5.1 ± 0.32 and the protein stability index (treatment: MLN4924 1 uM, 8 h) is 5.26 ± 0.34.

In the case of MEEQREALRKIIKTLAVKNEEIQS [FSD1], the protein stability index reads like this: (treatment: DMSO) 3.15 ± 0.1; (treatment: MLN4924 1 uM, 8 h) 3.16 ± 0.27.

On to MEEVLLLGLKDKEGYTSFWNDCIS [GOLPH3L], for which the protein stability index reads like this: (treatment: DMSO) 2.29 ± 0.29; (treatment: MLN4924 1 uM, 8 h) 2.61 ± 0.27.

MEGQRQESHATLTLAQAHFNNGEY [TTC32]: the protein stability index is, setting by setting: (treatment: DMSO) 4.42 ± 0.33; (treatment: MLN4924 1 uM, 8 h) 4.39 ± 0.18.

On to MEMAKFRYILPVYGICREPVGLVM [RIPK4], for which the protein stability index was determined as 2.69 ± 0.39 (treatment: DMSO) and 3.08 ± 0.86 (treatment: MLN4924 1 uM, 8 h).

In the case of MERPDKAALNALQPPEFRNESSLA [VMA21], the protein stability index stood at 4.77 ± 0.26 (treatment: DMSO) and 4.84 ± 0.088 (treatment: MLN4924 1 uM, 8 h).

Sequence MGVSSVIHPKNPHAPTIHFNYRYF [CPOX] yielded a protein stability index (treatment: DMSO) of 2.16 ± 0.35 and a protein stability index (treatment: MLN4924 1 uM, 8 h) of 2.12 ± 0.18.

Consider MLCSQPGLANSSRVRGRVGTIRPV [C22orf15], for which the protein stability index turned out to be 3.23 ± 0.27 (treatment: DMSO) and 3.37 ± 0.2 (treatment: MLN4924 1 uM, 8 h).

For MNCLPSNRTLWRLDLAGNNIPGDV [LRRC45], the protein stability index was determined as 2.75 ± 0.37 (treatment: DMSO) and 2.86 ± 0.4 (treatment: MLN4924 1 uM, 8 h).

As for MPAHLLQDDISSSYTTTTTITAPP [SCD], the protein stability index amounted to 3.99 ± 0.21 (treatment: DMSO) and 3.88 ± 0.28 (treatment: MLN4924 1 uM, 8 h).

Take MPDEPVEAPALPAPAAPMVSKGAE [BRD3]: the protein stability index by setting is: (treatment: DMSO) 5.17 ± 0.37; (treatment: MLN4924 1 uM, 8 h) 5.37 ± 0.3.

In the case of MPGDTDDAFPVHRVMMASASDYFK [KLHL13], the protein stability index is, setting by setting: (treatment: DMSO) 3.66 ± 0.35; (treatment: MLN4924 1 uM, 8 h) 3.6 ± 0.13.

MPKNSKVTQREHSSEHVTESVADL [SLC6A17] displayed a protein stability index (treatment: DMSO) of 5.4 ± 0.14 and a protein stability index (treatment: MLN4924 1 uM, 8 h) of 5.45 ± 0.085.

Turning to MQQLYQVQLAQQQAALQKQQEVVV [ACBD3], the protein stability index reads like this: (treatment: DMSO) 2.96 ± 0.19; (treatment: MLN4924 1 uM, 8 h) 3.05 ± 0.22.

In the case of MRDQYEQMAEKNRRDAETWFLSKT [KRT16], the protein stability index by setting is: (treatment: DMSO) 4.29 ± 0.089; (treatment: MLN4924 1 uM, 8 h) 4.31 ± 0.12.

With MRLSWSVAQGPFDSFVVQYEDTNG [TNXB], the protein stability index came out at 2.26 ± 0.17 (treatment: DMSO) and 2.21 ± 0.12 (treatment: MLN4924 1 uM, 8 h).

Take MRVGPVRSAMSGASQPRGPALLFP [TRIB1]: the protein stability index reads like this: (treatment: DMSO) 3.48 ± 0.65; (treatment: MLN4924 1 uM, 8 h) 3.08 ± 0.24.

Take MSGGPMGGRPGGRGAPAVQQNIPS [WAS]: the protein stability index came to 4.31 ± 0.35 (treatment: DMSO) and 4.62 ± 0.18 (treatment: MLN4924 1 uM, 8 h).

With MSRRTRCEDLDELHYQDTDSDVPE [MYBL2], the protein stability index is, setting by setting: (treatment: DMSO) 5.33 ± 0.2; (treatment: MLN4924 1 uM, 8 h) 5.59 ± 0.2.

For the sequence MSSQVVGIEPLYIKAEPASPDSPK [ESRRA], the protein stability index by setting is: (treatment: DMSO) 4.86 ± 0.12; (treatment: MLN4924 1 uM, 8 h) 4.89 ± 0.095.

With MSTNTVGLGLPMSRSQNTDMVQKS [CLINT1], the protein stability index is, setting by setting: (treatment: DMSO) 4.59 ± 0.13; (treatment: MLN4924 1 uM, 8 h) 4.7 ± 0.28.

Take MTESLEASEFLEQSMSQTRELLLD [RSPH3]: the protein stability index runs as follows: (treatment: DMSO) 4.9 ± 0.12; (treatment: MLN4924 1 uM, 8 h) 4.98 ± 0.32.

For MTPQLFINYKLKSVAHLPWRMLTY [CLPTM1], the protein stability index (treatment: DMSO) was found to be 2.57 ± 0.71 and the protein stability index (treatment: MLN4924 1 uM, 8 h) was determined as 2.45 ± 0.56.

MVVKTFMDMDQDSEEEKELYLNLA [PDS5B]: the protein stability index (treatment: DMSO) amounted to 2.79 ± 0.22 and the protein stability index (treatment: MLN4924 1 uM, 8 h) was 3 ± 0.23.

In the case of NALVTKLLLDCGAEVNAVDNEGNS [FEM1B], the protein stability index reads like this: (treatment: DMSO) 3.64 ± 0.19; (treatment: MLN4924 1 uM, 8 h) 3.72 ± 0.17.

For the sequence NASHKLEVRLVPVSFEDPEFKSSF [ATE1], the protein stability index reads like this: (treatment: DMSO) 2.65 ± 0.25; (treatment: MLN4924 1 uM, 8 h) 3.18 ± 0.19.

On to NCHIGGSFSEETEKKFEHFSGLLN [LOXL2], for which the protein stability index came out at 3.02 ± 0.27 (treatment: DMSO) and 3.44 ± 0.32 (treatment: MLN4924 1 uM, 8 h).

For NEEIQSFIYSLKQMLLNVEANSAK [FSD1], the protein stability index worked out at 2.99 ± 0.73 (treatment: DMSO) and 2.72 ± 0.38 (treatment: MLN4924 1 uM, 8 h).

Consider NEWRRPIIQFVESGDDKNSNYFSM [TRIM29], for which the protein stability index runs as follows: (treatment: DMSO) 3 ± 0.3; (treatment: MLN4924 1 uM, 8 h) 3.12 ± 0.34.

Take NFAVQHRYLFEEDNLLRSTQKLSH [MATN2]: the protein stability index runs as follows: (treatment: DMSO) 2.97 ± 0.24; (treatment: MLN4924 1 uM, 8 h) 2.85 ± 0.27.
